Source: US20260076602A1, “SYSTEM AND METHOD FOR RAPID ASSESSMENT OF RENAL FUNCTION” (Mayo Foundation for Medical Education and Research, priority 2018, published 2026)

Assay: Normalized fluorescence from retinal vasculature following IV injection of fluorescent tracer agents (renal clearance)
Conditions: period of 15 min after IV injection, FIG. 12A
Experimental: Normalized fluorescence from retinal vasculature following sequential IV FITC-inulin (green) and Rhod-Dex (500 kD, red) using Phoenix Research Systems Micron imaging may be obtained. Traces synchronized to tail-vein injection (T=0 min). […] Inulin clearance based on traces of normalized fluorescence and previous calibration of Inulin/Rhod-Dex ratio in WT mouse whole blood (insert). Dashed black lines=exponential and linear (insert) curve fits to inulin concentration.
As an example, AK-Fluor®, a fluorescein-based substance, may be used as a first tracer agent that is substantially cleared by healthy renal function and emits a first fluorescent light when excited by a first excitation light. […] In some examples, a AK-Fluor® of 10^−7 g/ml is injected into the patient during an iGFR procedure. […] As shown, in addition to recording the fluorescence signals representing the fluorescent intensities of a first tracer agent and a second tracer agent, a decay rate of the first tracer agent may also be fitted to a first exponential order. […] As another example, FITC-inulin may also be used as a first tracer agent that is substantially cleared by healthy renal function and emits a first fluorescent light when excited by a first excitation light.

For FITC-inulin, the “fluorescence of tracer agent after injection (clearance by healthy renal function)” value was “decrease over a period of 15 min after injection”.
